# T1: TLR7 F507L (Macaca mulatta, UniProt B3Y653 27-839, F507L)
# T1 sequence: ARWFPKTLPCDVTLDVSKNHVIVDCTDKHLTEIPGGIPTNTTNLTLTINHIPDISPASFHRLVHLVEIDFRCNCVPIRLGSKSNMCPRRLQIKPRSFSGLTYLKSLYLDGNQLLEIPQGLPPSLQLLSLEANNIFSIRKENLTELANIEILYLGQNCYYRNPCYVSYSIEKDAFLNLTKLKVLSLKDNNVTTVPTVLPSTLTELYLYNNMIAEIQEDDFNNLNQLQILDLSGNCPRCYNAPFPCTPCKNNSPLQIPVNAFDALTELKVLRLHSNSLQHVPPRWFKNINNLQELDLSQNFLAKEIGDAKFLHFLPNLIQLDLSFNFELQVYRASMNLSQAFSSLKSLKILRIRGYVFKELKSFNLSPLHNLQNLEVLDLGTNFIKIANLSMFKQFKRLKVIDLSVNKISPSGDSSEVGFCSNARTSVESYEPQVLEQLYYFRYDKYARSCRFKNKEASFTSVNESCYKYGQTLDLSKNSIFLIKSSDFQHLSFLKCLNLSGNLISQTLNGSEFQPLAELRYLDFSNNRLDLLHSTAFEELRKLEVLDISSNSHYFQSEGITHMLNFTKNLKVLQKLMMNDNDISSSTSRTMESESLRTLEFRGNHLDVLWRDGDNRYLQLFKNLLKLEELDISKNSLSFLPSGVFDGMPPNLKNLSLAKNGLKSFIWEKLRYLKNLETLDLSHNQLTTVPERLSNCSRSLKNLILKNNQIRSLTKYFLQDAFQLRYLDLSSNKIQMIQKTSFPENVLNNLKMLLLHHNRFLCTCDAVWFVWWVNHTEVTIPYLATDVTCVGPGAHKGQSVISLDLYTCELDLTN
# T2: TLR7 T406S (Macaca mulatta, UniProt B3Y653 27-839, T406S)
# T2 sequence: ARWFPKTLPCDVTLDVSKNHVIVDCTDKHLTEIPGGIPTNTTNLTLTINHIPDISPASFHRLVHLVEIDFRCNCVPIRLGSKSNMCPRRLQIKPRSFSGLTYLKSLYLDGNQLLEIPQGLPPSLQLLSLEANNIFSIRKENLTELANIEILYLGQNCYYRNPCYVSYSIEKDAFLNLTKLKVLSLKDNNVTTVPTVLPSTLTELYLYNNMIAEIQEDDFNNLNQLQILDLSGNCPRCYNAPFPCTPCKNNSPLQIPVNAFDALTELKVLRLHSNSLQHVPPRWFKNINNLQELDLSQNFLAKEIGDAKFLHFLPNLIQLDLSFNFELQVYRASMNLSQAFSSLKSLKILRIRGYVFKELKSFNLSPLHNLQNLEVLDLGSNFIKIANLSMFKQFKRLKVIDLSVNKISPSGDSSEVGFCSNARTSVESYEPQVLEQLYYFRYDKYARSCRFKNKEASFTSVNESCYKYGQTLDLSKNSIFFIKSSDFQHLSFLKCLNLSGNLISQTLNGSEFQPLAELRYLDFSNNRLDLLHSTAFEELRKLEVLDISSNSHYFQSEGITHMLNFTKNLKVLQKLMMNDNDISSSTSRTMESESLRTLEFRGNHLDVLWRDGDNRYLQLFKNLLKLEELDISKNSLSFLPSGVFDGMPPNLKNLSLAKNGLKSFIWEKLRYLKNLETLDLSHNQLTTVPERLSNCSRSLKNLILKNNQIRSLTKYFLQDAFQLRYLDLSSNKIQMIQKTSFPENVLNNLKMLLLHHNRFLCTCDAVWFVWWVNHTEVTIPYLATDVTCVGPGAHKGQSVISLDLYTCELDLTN
# T3: TLR7 S530A (Macaca mulatta, UniProt B3Y653 27-839, S530A)
# T3 sequence: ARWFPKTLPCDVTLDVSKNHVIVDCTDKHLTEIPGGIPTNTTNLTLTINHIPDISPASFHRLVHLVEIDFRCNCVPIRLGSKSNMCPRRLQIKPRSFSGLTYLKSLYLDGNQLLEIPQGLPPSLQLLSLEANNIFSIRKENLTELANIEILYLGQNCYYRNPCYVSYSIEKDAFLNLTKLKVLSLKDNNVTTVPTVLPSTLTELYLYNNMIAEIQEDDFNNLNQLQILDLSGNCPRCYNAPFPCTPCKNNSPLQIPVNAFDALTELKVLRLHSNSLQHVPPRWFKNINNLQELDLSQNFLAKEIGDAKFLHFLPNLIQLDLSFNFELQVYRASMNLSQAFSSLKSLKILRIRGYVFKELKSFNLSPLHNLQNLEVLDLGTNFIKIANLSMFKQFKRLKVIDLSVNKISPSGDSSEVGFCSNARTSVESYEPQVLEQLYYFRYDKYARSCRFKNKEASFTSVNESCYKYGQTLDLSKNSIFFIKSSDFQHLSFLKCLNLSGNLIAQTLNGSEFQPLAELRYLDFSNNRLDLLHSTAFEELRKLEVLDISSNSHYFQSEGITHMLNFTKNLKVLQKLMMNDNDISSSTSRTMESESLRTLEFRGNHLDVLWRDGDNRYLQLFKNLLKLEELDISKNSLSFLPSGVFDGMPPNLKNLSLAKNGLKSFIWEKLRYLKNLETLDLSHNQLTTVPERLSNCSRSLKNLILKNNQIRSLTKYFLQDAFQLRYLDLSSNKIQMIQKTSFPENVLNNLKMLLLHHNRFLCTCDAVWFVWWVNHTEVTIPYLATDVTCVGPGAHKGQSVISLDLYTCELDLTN
# B1: mGrUrC PS (XNA)
# RNA: GUC
# modifications: 2'-OMe G1, RNA U2 C3; phosphorothioate linkages
# Experiments:
# Settings in all cases: protein: recombinant; chain copies: 2; single-stranded
# [1] = biological target: T1, TLR7 F507L; experiment: SPR; mean computed from runs 16±2, 18±2, 20±6; SPR with recombinant TLR7/TLR8; buffer, pH and temperature not in the material
# [2] = biological target: T2, TLR7 T406S; experiment: SPR; mean computed from runs 0.5±0.09, 0.6±0.1, 0.6±0.1; SPR with recombinant TLR7/TLR8; buffer, pH and temperature not in the material
# [3] = biological target: T3, TLR7 S530A; experiment: SPR; mean computed from runs 0.1±0.02, 0.2±0.04, 0.2±0.06; SPR with recombinant TLR7/TLR8; buffer, pH and temperature not in the material
binder,measurement,setting,value
B1,Kd,[1],18000 nM
same,Kd,[2],570 nM
same,Kd,[3],170 nM

# Source: publication PMC13043311, “2′-O-Methyl-guanosine RNA fragments antagonize TLR7 and TLR8 to limit autoimmunity”
